According to US20070219133A1:

Legend:
[1] = target: extracellular region of human F158 FcγRIIIa (human) (UniProt P08637); assay: SPR
[2] = target: His-tagged human V158 FcγRIIIa (immobilized on SPR chip) (human) (UniProt P08637); assay: SPR, His-tagged V158 FcγRIIIa immobilized
[3] = target: extracellular region of human V158 FcγRIIIa fused with GST (human) (UniProt P08637); assay: AlphaScreen competition
[4] = target: human FcγRIIIa on human PBMC effector cells (human) (UniProt P08637); assay: cell-based or functional assay
[5] = target: extracellular region of human F158 FcγRIIIa (human) (UniProt P08637); assay: AlphaScreen competition
[6] = target: extracellular region of human FcγRIIb (human) (UniProt P31994); assay: AlphaScreen competition, trastuzumab context
Chain of extracellular region of human FcγRIIb (human) (P31994 43-217): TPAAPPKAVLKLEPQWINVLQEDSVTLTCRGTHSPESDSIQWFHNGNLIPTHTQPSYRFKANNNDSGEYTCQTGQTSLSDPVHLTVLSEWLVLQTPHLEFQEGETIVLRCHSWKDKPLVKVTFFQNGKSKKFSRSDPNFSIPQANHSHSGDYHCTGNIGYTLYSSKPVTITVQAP

[7] = target: extracellular region of human FcγRIIb (human) (UniProt P31994); assay: AlphaScreen competition

Chain of extracellular region of human F158 FcγRIIIa (human) (P08637 17-208): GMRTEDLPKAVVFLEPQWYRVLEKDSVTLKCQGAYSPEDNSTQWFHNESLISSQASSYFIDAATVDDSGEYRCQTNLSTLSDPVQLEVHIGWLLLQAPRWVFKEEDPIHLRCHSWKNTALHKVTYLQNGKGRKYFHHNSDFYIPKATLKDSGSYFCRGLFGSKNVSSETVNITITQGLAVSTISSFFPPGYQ
Chain of extracellular region of human V158 FcγRIIIa fused with GST (human) (P08637 17-208 F176V): as the sequence (P08637 17-208) above, with F160V counted along it
Chain of His-tagged human V158 FcγRIIIa (immobilized on SPR chip) (human) (P08637 17-208 F176V limits assumed): as the sequence (P08637 17-208) above, with F160V counted along it

| Substance | FcγRIIIa Fold [3] [fold vs WT] | other results |
| --- | --- | --- |
| alemtuzumab Fc variant I332E (antibody) | – | Kd [1]: 72 nM; Kd [2]: 31 nM |
| alemtuzumab Fc variant S239D/I332E (antibody) | 56.1 | ADCC EC50 (ng/ml), DoHH-2 targets, PBMCs heterozygous V158/F158 FcγRIIIa [4]: 3 ng/mL; ADCC Fold Improvement Over WT [4]: 3.3 fold |
| alemtuzumab Fc variant S298A (antibody) | – | Kd [1]: 285 nM; Kd [2]: 52 nM |
| alemtuzumab Fc variant S298A/E333A/K334A (antibody) | – | Kd [1]: 156 nM; Kd [2]: 39 nM |
| alemtuzumab Fc variant V264I (antibody) | – | Kd [1]: 550 nM; Kd [2]: 64 nM |
| alemtuzumab Fc variant V264I/I332E (antibody) | 12.5 | Fold [1]: 14 fold vs WT; Kd [1]: 52 nM; Fold [2]: 4 fold vs WT; Kd [2]: 17 nM; Fold [5]: 15.6 fold vs WT; IC50 [5]: 1.1 nM; Fold [3]: 12.8 fold vs WT; IC50 [3]: 0.5 nM; ADCC EC50 (ng/ml), DoHH-2 targets, PBMCs heterozygous V158/F158 FcγRIIIa [4]: 4 ng/mL; ADCC Fold Improvement Over WT [4]: 2.5 fold |
| alemtuzumab Fc variant W313F (antibody) | 0.88 | – |
| trastuzumab Fc variant E233D (antibody) | 0.85 | – |
| trastuzumab Fc variant E272Y (antibody) | 8.7 | – |
| trastuzumab Fc variant E283R (antibody) | 0.67 | – |
| trastuzumab Fc variant E318R (antibody) | 1.06 | – |
| trastuzumab Fc variant E333H (antibody) | 0.75 | – |
| trastuzumab Fc variant E333T (antibody) | 0.78 | – |
| trastuzumab Fc variant F275W (antibody) | 1.11 | – |
| trastuzumab Fc variant K274E (antibody) | 6.11 | – |
| trastuzumab Fc variant K274L (antibody) | 1.09 | – |
| trastuzumab Fc variant K274R (antibody) | 1.41 | – |
| trastuzumab Fc variant K274T (antibody) | 1.41 | – |
| trastuzumab Fc variant K274Y (antibody) | 1.06 | – |

| Substance | FcγRIIIa Fold [3] [fold vs WT] | other results |
| --- | --- | --- |
| trastuzumab Fc variant K326I (antibody) | 1.43 | – |
| trastuzumab Fc variant K326T (antibody) | 1.88 | – |
| trastuzumab Fc variant L234I/L235D (antibody) | 0.07 | – |
| trastuzumab Fc variant N276E (antibody) | 0.87 | – |
| trastuzumab Fc variant N276R (antibody) | 0.66 | – |
| trastuzumab Fc variant N276S (antibody) | 0.41 | – |
| trastuzumab Fc variant N276Y (antibody) | 0.56 | – |
| trastuzumab Fc variant P230A (antibody) | 1.09 | – |
| trastuzumab Fc variant P230A/E233D (antibody) | 0.92 | – |
| trastuzumab Fc variant P230A/E233D/I332E (antibody) | 1.87 | – |
| trastuzumab Fc variant S239D (antibody) | – | FcγRIIb Fold [6]: 4.47 fold vs WT |
| trastuzumab Fc variant S239D/A330Y/I332E/K326E (antibody) | 64.1 | – |
| trastuzumab Fc variant S239D/A330Y/I332E/L234I (antibody) | 22.4 | – |
| trastuzumab Fc variant S239D/A330Y/I332E/L235D (antibody) | 7.04 | – |
| trastuzumab Fc variant S239D/A330Y/I332E/V240I (antibody) | 28 | – |
| trastuzumab Fc variant S239D/A330Y/I332E/V264T (antibody) | 17.7 | – |
| trastuzumab Fc variant S239D/I332E (antibody) | – | FcγRIIb Fold [6]: 19.7 fold vs WT |
| trastuzumab Fc variant S239D/I332E/A330I (antibody) | 59.1 | – |
| trastuzumab Fc variant S239D/V264I/I332E (antibody) | 36.6 | FcγRIIb Fold [7]: 14.4 fold vs WT |

| Substance | FcγRIIIa Fold [3] [fold vs WT] | other results |
| --- | --- | --- |
| trastuzumab Fc variant S239N/A330L/I332E (antibody) | 12.9 | – |
| trastuzumab Fc variant S239N/A330Y/I332E (antibody) | 14.2 | – |
| trastuzumab Fc variant S239N/S298A/I332E (antibody) | 32.1 | FcγRIIb Fold [7]: 5.15 fold vs WT |
| trastuzumab Fc variant S324I (antibody) | 1.15 | – |
| trastuzumab Fc variant S324R (antibody) | 0.71 | – |
| trastuzumab Fc variant S324V (antibody) | 117 | – |
| trastuzumab Fc variant S324Y (antibody) | 0.98 | – |
| trastuzumab Fc variant T335D (antibody) | 2.79 | – |
| trastuzumab Fc variant T335R (antibody) | 2.58 | – |
| trastuzumab Fc variant T335Y (antibody) | 1.56 | – |
| trastuzumab Fc variant V240I/V266I (antibody) | 1.72 | – |
| trastuzumab Fc variant V264I/S298A/I332E (antibody) | 16.5 | – |
| trastuzumab Fc variant V273I (antibody) | 0.79 | – |
| trastuzumab Fc variant V302I (antibody) | 1.01 | – |
| trastuzumab Fc variant V323I (antibody) | 0.83 | – |
| trastuzumab Fc variant Y278E (antibody) | 0.9 | – |
| trastuzumab Fc variant Y278T (antibody) | 1.87 | – |
| trastuzumab Fc variant Y278W (antibody) | 0.41 | – |
| wild type alemtuzumab (Campath), IgG1, expressed in 293T cells (antibody) | – | Kd [1]: 730 nM; Kd [2]: 68 nM; ADCC EC50 (ng/ml), DoHH-2 targets, PBMCs heterozygous V158/F158 FcγRIIIa [4]: 9.9 ng/mL |
